What was measured:
[1] = target: huFLT3-M227 stably expressed on Ramos cells (human) (UniProt P36888); assay: FACS on cells
[2] = target: huFLT3-T227 stably expressed on Ramos cells (human) (UniProt P36888); assay: FACS on cells

Binder	FACS geometric mean fold change over Jurkat parental [1] [fold]	FACS geometric mean fold change over Jurkat parental [2] [fold]
Polypeptide No. 227 (scFv, V domains shown) VH: QVQLVQSGAEVKKPGSSVKVSCKASGYTLNELFMHWVRQAPGQGLEWVGGIIPMSGTTFYAQTFQGRVTITADESTSTAYMELSSLRSEDTAVYYCAKGVRQYSYGRYYYGMDVWGQGTLVTVSS VL: DIQMTQSPSSLSASVGDRVTITCRASQSVSSYLNWYQQKPGKAPKLLIYGASNLQSGVPSRFSGSGSGTDFTLTISSLQPEDFATYYCQQSYTTPWTFGQGTRLEIKR	< 2	< 2
Polypeptide No. 236 (scFv, V domains shown) VH: QVQLVQSGAEVKKPGSSVKVSCKASGGTFSSYAISWVRQAPGQGLEWMGGIIPILGIANYAQKFQGRVTITADESTSTAYMELSSLRSEDTAVYYCAHVDGYGMDVWGQGTTVTVSS VL: EIVMTQSPATLSVSPGERATLSCRASQSVSSNLAWYQQKPGQAPRLLIYDVSSRATGIPARFSGSGSGTEFTLTISSLQSEDFAVYYCQQLDAYPLTFGGGTKVEIKR	< 2	< 2
Polypeptide No. 205 (scFv, V domains shown) VH: QVQLVQSGAEVKKPGSSVKVSCKASGGSFISHTFSWVRQAPGQGLEWMGGIIPISGTANYAQKFQGRVTITADESTSTAYMELSSLRSEDTAVYYCAKGRGQLVGGYFQHWGQGTLVTVSS VL: DIVMTQSPLSLPVTPGEPASISCRSSQSLLHSNGYNYLDWYLQKPGQSPQLLIYAASSLQSGVPDRFSGSGSGTDFTLKISRVEAEDVGVYYCMQALQTPLTFGQGTRLEIKR	< 2	< 2
Polypeptide No. 211 (scFv, V domains shown) VH: EVQLLESGGGLVQPGGSLRLSCAASGFTFSNHYMSWVRQAPGKGLEWVSAIGAGGGTYYADSVKGRFTISRDNSKNTLYLQMNSLRAEDTAVYYCAKSSGYSYGRRPFDYWGQGTLVTVSS VL: DIQMTQSPSSLSASVGDRVTITCRASQGISNNLAWYQQKPGKAPKLLIYAASTLHNGVPSRFSGSGSGTDFTLTISSLQPEDFATYYCQQYGRSPKTFGQGTKVEIKR	< 2	< 2
Polypeptide No. 220 (scFv, V domains shown) VH: QVQLVQSGAEVKKPGASVKVSCKASGYTFTGYYMYWVRQAPGQGLEWMGIINPRGGITSYAQRFQGRVTMTRDTSTSTVYMELSSLRSEDTAVYYCARGSTSSGWPNGDMDVWGKGTTVTVSS VL: DIQMTQSPSSLSASVGDRVTITCRASQGIRNDLGWYQQKPGKAPKLLIYAASSLQSGVPSRFSGSGSGTDFTLTISSLQPEDFATYYCQQANRFPPTFGQGTKVEIKR	< 2	–
Polypeptide No. 232 (scFv, V domains shown) VH: QVQLVQSGAEVKKPGASVKVSCKASGYTFTSYGIHWVRQAPGQGLEWMGGIIPIFGTASYAQKFQGRVTMTRDTSTSTVYMELSSLRSEDTAVYYCTRSNGIAAAGTHWYFDLWGRGTLVTVSS VL: DIQMTQSPSSLSASVGDRVTITCRASQNIANSLNWYQQKPGKAPKLLIYAASSLQSGVPSRFSGSGSGTDFTLTISSLQPEDFATYYCQQYSSYPPTFGPGTKVDIKR	< 2	< 2
Polypeptide No. 209 (scFv, V domains shown) VH: EVQLLESGGGLVQPGGSLRLSCAASGFAFSSYVLHWVRQAPGKGLEWVAGIWVDGHNKDYADSVKGRFTISRDNSKNTLYLQMNSLRAEDTAVYYCAREFGAAGSFQHWGQGTLVTVSS VL: DIQMTQSPSSLSASVGDRVTITCRASQSISTWLAWYQQKPGKAPKLLIYDASKLETGVPSRFSGSGSGTDFTLTISSLQPEDFATYYCQQSYTTPYTFGQGTKVEIKR	< 2	< 2
Polypeptide No. 226 (scFv, V domains shown) VH: QVQLVQSGAEVKKPGASVKVSCKASGYTFTGYYMHWVRQAPGQGLEWMGIIDPSGGSTSYAQKFQGRVTMTRDTSTSTVYMELSSLRSEDTAVYYCARDRSLLWSGVGGMDVWGQGTTVTVSS VL: DIQMTQSPSSLSASVGDRVTITCRASQGISNYLAWYQQKPGKAPKLLIYGASNLQSGVPSRFSGSGSGTDFTLTISSLQPEDFATYYCQQSYGTPYTFGQGTKLEIKR	–	< 2
Polypeptide No. 201 (scFv, V domains shown) VH: QVQLVQSGAEVKKPGASVKVSCKASGGTFSSDGISWVRQAPGQGLEWMGWISAYHGHTNYAQKFQGRVTMTRDTSTSTVYMELSSLRSEDTAVYYCARGGKHSGSHRSYYYGMDVWGQGTTVTVSS VL: DIQMTQSPSSLSASVGDRVTITCRASHNIGNKLAWYQQKPGKAPKLLIYGATTLQSGVPSRFSGSGSGTDFTLTISSLQPEDFATYYCQQANSFPRTFGPGTKVDIKR	< 2	< 2
Polypeptide No. 224 (scFv, V domains shown) VH: QVQLVQSGAEVKKPGSSVKVSCKASGYTFTGYYMHWVRQAPGQGLEWMGVINPIYGTANYALKFQGRVTITADESTSTAYMELSSLRSEDTAVYYCAKAISSGWSNDAFDIWGQGTMVTVSS VL: EIVMTQSPATLSVSPGERATLSCRASQSVSSDFLAWYQQKPGQAPRLLIYDTSSRASGIPARFSGSGSGTEFTLTISSLQSEDFAVYYCQQYAGPPTFGQGTRLEIKR	–	< 2
Polypeptide No. 230 (scFv, V domains shown) VH: QVQLVQSGAEVKKPGSSVKVSCKASGGTFSSNAINWVRQAPGQGLEWMGGIIPLFGTTNYAQKFQGRVTITADESTSTAYMELSSLRSEDTAVYYCARVLSGWYGTYYFDYWGQGTLVTVSS VL: EIVMTQSPATLSVSPGERATLSCRASQSVSADYIAWYQQKPGQAPRLLIYDVSTRASGIPARFSGSGSGTEFTLTISSLQSEDFAVYYCQHYGSSQVTFGQGTKVEIKR	< 2	< 2
Polypeptide No. 225 (scFv, V domains shown) VH: QVQLVQSGAEVKKPGSSVKVSCKASGYTLTELSIHWVRQAPGQGLEWMGGIVPMSGTASYAQKFQGRVTITADESTSTAYMELSSLRSEDTAVYYCARRRDGYNSWGQGTLVTVSS VL: DIVMTQSPDSLAVSLGERATINCKSSQSLLYGSKNYISWYQQKPGQPPKLLIYSSSTRESGVPDRFSGSGSGTDFTLTISSLQAEDVAVYYCQQYYTTPYTFGQGTKVEIKR	–	< 2

Now from value to binder:

FACS geometric mean fold change over Jurkat parental [1] [fold]	FACS geometric mean fold change over Jurkat parental [2] [fold]	Binder
–	< 2	Polypeptide No. 282 (scFv, V domains shown) VH: QVQLVQSGAEVKKPGASVKVSCKASGGTFSSYAISWVRQAPGQGLEWMGWMNPNSGDTGYAQKFQGRVTMTRDTSTSTVYMELSSLRSEDTAVYYCARDFEGGGWFDPWGQGTLVTVSS VL: EIVMTQSPATLSVSPGERATLSCRASRSISDYLAWYQQKPGQAPRLLIYDASSRATGIPARFSGSGSGTEFTLTISSLQSEDFAVYYCQQYYTTPLTFGQGTKVEIKR
–	< 2	Polypeptide No. 276 (scFv, V domains shown) VH: QVQLVQSGAEVKKPGSSVKVSCKASGYTFTRFNIHWVRQAPGQGLEWMGWLNPFTGNTGYARKFQGRVTITADESTSTAYMELSSLRSEDTAVYYCASSSSWYGWFDPWGQGTLVTVSS VL: EIVMTQSPATLSVSPGERATLSCRASQSVSSYLAWYQQKPGQAPRLLIYDTSTRATGIPARFSGSGSGTEFTLTISSLQSEDFAVYYCQQYHSSPWTFGQGTKVEIKR
–	< 2	Polypeptide No. 250 (scFv, V domains shown) VH: QVQLVQSGAEVKKPGSSVKVSCKASGYTLTSFAMHWVRQAPGQGLEWMGRIIPMSGTANYAQKFQGRVTITADESTSTAYMELSSLRSEDTAVYYCASTSPDQYYYGMDVWGQGTTVTVSS VL: EIVMTQSPATLSVSPGERATLSCRASQSVGSSSLAWYQQKPGQAPRLLIYGASTRATGIPARFSGSGSGTEFTLTISSLQSEDFAVYYCQQYGSSPYTFGQGTKVEIKR
–	< 2	Polypeptide No. 281 (scFv, V domains shown) VH: QVQLVQSGAEVKKPGASVKVSCKASGYTFNSYGISWVRQAPGQGLEWMGIINPTGGSTTYAQKFQGRVTMTRDTSTSTVYMELSSLRSEDTAVYYCAKDPFVMDVWGQGTTVTVSS VL: EIVMTQSPATLSVSPGERATLSCRASQSVSSSYLAWYQQKPGQAPRLLIYDASARAAGIPARFSGSGSGTEFTLTISSLQSEDFAVYYCQQYYSTPYTFGQGTKLEIKR
–	< 2	Polypeptide No. 268 (scFv, V domains shown) VH: QVQLVQSGAEVKKPGSSVKVSCKASGGTFSTYALSWVRQAPGQGLEWMGGVIPVFGTTDYAHKFQGRVTITADESTSTAYMELSSLRSEDTAVYYCASMIIFGAGGWDAYYFQEWGQGTLVTVSS VL: EIVMTQSPATLSVSPGERATLSCRASQSVNNNQLAWYQQKPGQAPRLLIYDTSSRATGIPARFSGSGSGTEFTLTISSLQSEDFAVYYCQQYDTSPYTFGQGTKVEIKR
–	< 2	Polypeptide No. 263 (scFv, V domains shown) VH: QVQLVQSGAEVKKPGSSVKVSCKASGGTFSSYAISWVRQAPGQGLEWMGGIIPIVGVANYAQKLQGRVTITADESTSTAYMELSSLRSEDTAVYYCAKDIGGYPSDAFDIWGQGTTVTVSS VL: EIVMTQSPATLSVSPGERATLSCRASQSVSSSYLAWYQQKPGQAPRLLIYDVSTRATGIPARFSGSGSGTEFTLTISSLQSEDFAVYYCQQYGSSPITFGQGTKVEIKR
–	< 2	Polypeptide No. 245 (scFv, V domains shown) VH: QVQLVQSGAEVKKPGSSVKVSCKASGYTFTGFYIHWVRQAPGQGLEWMGGVIPFFSRTIYAQKFQGRVTITADESTSTAYMELSSLRSEDTAVYYCAYGANGHLYGMDAWGQGTTVTVSS VL: EIVMTQSPATLSVSPGERATLSCRASQSVSSSYLAWYQQKPGQAPRLLIYGASTRATGIPARFSGSGSGTEFTLTISSLQSEDFAVYYCQQYSSSPLTFGQGTKVEIKR
–	< 2	Polypeptide No. 286 (scFv, V domains shown) VH: QVQLVQSGAEVKKPGASVKVSCKASGYTFTSYGISWVRQAPGQGLEWMGWISPNSGVTNYAQKFQGRVTMTRDTSTSTVYMELSSLRSEDTAVYYCVSDDYGAFDYWGQGTLVTVSS VL: EIVMTQSPATLSVSPGERATLSCRASQSVSSSYLAWYQQKPGQAPRLLIYDVSTRASGIPARFSGSGSGTEFTLTISSLQSEDFAVYYCQQYNNWPYTFGQGTKLEIKR

— US20240101668A1
